Kd data for one substance are collected here from paper PMC12655427.

The target of test [1] is recombinant soluble human FcRn variant FcRn-E2A (FcRn heavy α-chain extracellular domain with β2-microglobulin) (human) (UniProt P55899). Put plainly: BLI; Octet RED96e; FcRn loaded at 5 µg/mL on HIS1K (anti-penta-HIS) biosensors; antibody 900 as analyte at 89.9 nM; global 1:1 model; pH 7.4–7.5.
For test [2], the target named is recombinant soluble human FcRn variant FcRn-F2A (FcRn heavy α-chain extracellular domain with β2-microglobulin) (human) (UniProt P55899). The description is as above.
Test [3] concerns the target recombinant soluble human FcRn variant FcRn-P2A (FcRn heavy α-chain extracellular domain with β2-microglobulin) (human) (UniProt P55899). Described as above.
Test [4] concerns the target recombinant soluble human FcRn variant FcRn-E2A (FcRn heavy α-chain extracellular domain with β2-microglobulin) (human) (UniProt P55899). Description: BLI; Octet RED96e; FcRn loaded at 5 µg/mL on HIS1K (anti-penta-HIS) biosensors; antibody 900 as analyte at 89.9 nM; global 1:1 model; pH 6.0–6.1.
The target of test [5] is recombinant soluble human FcRn variant FcRn-F2A (FcRn heavy α-chain extracellular domain with β2-microglobulin) (human) (UniProt P55899). The description is as above.
For test [6], the target named is recombinant soluble human FcRn variant FcRn-P2A (FcRn heavy α-chain extracellular domain with β2-microglobulin) (human) (UniProt P55899). The test is described as above.

Regarding “antibody 900 (variable regions of the light and heavy chains of the murine antibody 9E2 fused to the Fc fragment of human IgG1 with M252Y, S254T, T256E, E333A, H433K/N434F) (Fc fusion)”, the dissociation constant Kd in test [1] turned out to be 15.8 nM; in test [2], 14.3 nM; in test [3] it was 17.3 nM; in test [4] it was 3.46 nM; in test [5], 4.13 nM; in test [6], 3.15 nM.
